From patent publication US20230083243A1 (VEGA THERAPEUTICS, published 2023)

T1: human Protein S (human, UniProt P07225 42-676)
T1 construct: also called ProS; ProS1
T1 sequence: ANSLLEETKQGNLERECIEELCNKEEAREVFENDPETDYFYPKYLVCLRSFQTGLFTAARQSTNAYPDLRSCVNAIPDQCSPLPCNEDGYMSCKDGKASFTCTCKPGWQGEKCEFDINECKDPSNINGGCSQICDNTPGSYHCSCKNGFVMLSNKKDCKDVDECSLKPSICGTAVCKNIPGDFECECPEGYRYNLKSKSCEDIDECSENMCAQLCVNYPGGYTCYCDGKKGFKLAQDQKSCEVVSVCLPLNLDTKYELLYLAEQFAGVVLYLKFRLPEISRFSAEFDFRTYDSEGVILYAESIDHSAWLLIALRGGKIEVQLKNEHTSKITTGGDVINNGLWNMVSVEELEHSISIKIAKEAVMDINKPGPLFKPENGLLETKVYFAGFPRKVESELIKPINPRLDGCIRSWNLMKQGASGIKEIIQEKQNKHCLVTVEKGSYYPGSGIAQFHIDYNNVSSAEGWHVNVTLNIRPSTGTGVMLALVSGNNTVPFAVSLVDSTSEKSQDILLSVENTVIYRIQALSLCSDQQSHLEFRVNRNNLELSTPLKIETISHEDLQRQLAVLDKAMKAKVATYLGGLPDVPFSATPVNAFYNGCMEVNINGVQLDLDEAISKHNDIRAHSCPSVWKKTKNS

B1: Antibody 12 (antibody, V domains shown)
VH: QVQLQESGPGLVKPSETLSLTCGVSGGSISSTNWWSWVRQPPGKGLEWIGEIYQTGSTDYDPSLKSRVTISIDKSKNQFSLKLYSVTAADTAVYYCARRFGELDYWGQGTLVTVSS
VL: EIVMTQSPATLSVSPGERATLSCRASQSVTSNLAWYQQKPGQAPRLLIYDASTRATGIPARFSGSGSGTEFTLTISSLQSEDFAIYYCQQYNNWPTFGQGTRLEIK
notes: Same variable regions as Antibody 24
B2: Antibody 43 (antibody, V domains shown)
VH: QVQLVQSGAEVKKPGASVKVSCKASGYTFTSYYIHWVRQAPGQGLEWMGVTSPSGRSTSFAQKFQGRVTMTRDTSTSAVYMDLDSLRSEDTAVYYCARGGVTIHLERRGYFDYWGQGTLVIVSS
VL: not shown
notes: Same variable regions as Antibody 44
B3: Antibody 9 (antibody, V domains shown)
VH: QVQLVQSGAEVKKPGSSVKVSCKASGDTFSNHAINWVRQAPGQGLEWMGGYIPIFGTTNSAQKFRGRVTITADKSTNTAYMALSSLRSEDTAVYYCARGGLAGSHYKNYYYDGMDVWGQGTTVTVSS
VL: not shown
notes: Same variable regions as Antibody 21
B4: Antibody 7 (antibody, V domains shown)
VH: QLQLQESGPGLVKPSETLSLTCTVSGGSISSSSYYWGWIRQPPGKGLEWIGNIYYSGNTYYNPSLKSRVTISVDTSKNQFSLKLSSMTAADTAVYYCARCSGYGYSSGRSYFDYWGQETLVTVSS
VL: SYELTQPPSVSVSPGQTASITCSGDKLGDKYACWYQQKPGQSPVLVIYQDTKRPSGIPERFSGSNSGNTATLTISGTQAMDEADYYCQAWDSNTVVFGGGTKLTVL
notes: Same variable regions as Antibody 19
B5: Antibody 4 (antibody, V domains shown)
VH: QVQLVESGGGVVQPGRSLRLSCAASGFTFSTYGFHWVRQPPGKGLEWVAVIYYDGINKYYADSVKGRFTISRDNSKNTLFLQMNSLRAEDTAVYYCAESDLDYWGQGTLVTVSS
VL: EIVLTQSPATLSLSPGERATLSCRASQSVSIYLAWYQQKPGQAPRLLIYDASNRATGIPARFSGSGSGTDFTLTISSLEPEDFAVYYCQQRSNWPLTFGPGTKVDIK
notes: Same variable regions as Antibody 16
B6: Antibody 27 (antibody, V domains shown)
VH: QVQLQQSGPGLVKPSQTLSLTCAISGDSVSNNNAAWNWIRQSPSRGLEWLGGTYYRSKWYNDYAVSVKSRIIINPVTSKNQFSLQLNSVTPEDTAVYYCARGSSWYRFFDYWGQGTLVTVSS
VL: EIVLTQSPGTLSLSPGERATLSCRASQSVGSSYLAWYQQKPGQAPRLLISGASGRATGIPDRFSGSGSGTDFTLTISRLEPEDFTVYYCQQYGSSPYTFGQGTKLEIK
notes: Same variable regions as Antibody 33
B7: Antibody 6 (antibody, V domains shown)
VH: QVQLQESGPGLVKPSETLSLTCTVSGGSISNYYWNWIRQPPGKGLEWIGYIYYIGITDYNPSLKSRVTISVDTSKNQFSLKVTSVTAADTAVYYCAALSGDHAFDIWGQGTLVTVSS
VL: not shown
notes: Same variable regions as Antibody 18
B8: Antibody 28 (antibody, V domains shown)
VH: QVQLQQSGTELVRPGTSVKMSCKAAGYTFTNHWIGWVKQRPGHGLEWIGDIYPGGGYTNYNEKFKGKASLTADTSSTTAYMQLSSLTSEDSAIYYCSRFGDQNWAWFAYWGQGTLVTVSA
VL: DIQMNQSPSSLSASLGDTITITCRASQNIHMWLSWYQQKPGNIPKLLIFKTSNLHTGVPSRFSGSGSGTDFTLTISSLQPEDIATYYCLQGQSYPFTFGGGTKLEIK
B9: Antibody 3 (antibody, V domains shown)
VH: EVQLVESGGGLVQPGRSLRLSCAASGFTFDDYAMHWVRQAPGKGLEWVSGITWNSGNIGYADSVKGRFTISRDNAKNSLYLHMNSLRIEDTAFYYCAKGRAVSDTFDIWGQGTMVTVSS
VL: SYELNQPPSVSVSPGQTASITCSGDKLGDKYASWYQQKPGQSPVVAIYQNSKRPSGIPERFSASNSGNTATLTISGTQALDEADYYCQAWDSSTWVFGGGTKLTVL
notes: Same variable regions as Antibody 15
B10: Antibody 8 (antibody, V domains shown)
VH: QVQLQESGPGLVKPSETLSLTCAVSGYSISSGYYWGWIRQPPGKGLDWIGSIYYSGSTYYNPSLKSRVTISVDTSKNQISLKLSSVTAADTAVYYCATTYSDIVTGYYNDAFDIWGQGTMVTVSS
VL: EIVMTQSPATLSVSPGERATLSCRASQRINSNLAWYQQKPGQAPRLLIYGASTRATGIPARFSGSGSGTEFTLTISSLQSEDFAAYYCQQYDNWPLTFGGGTKVEIK
notes: Same variable regions as Antibody 20
B11: Antibody 2 (antibody, V domains shown)
VH: QVQLQESGPGLVKPSQTLSLTCTVSGGSITSDGYHWSWIRQYPGKGLDWIGYIYYTGNTYYNPSLKSRVTISVGTSQNQFSLKLISVTAADTAVYYCARRLSTGPYFDYWGQGTLVTVSS
VL: QSALTQPASVSGSPGQSITISCTGTSSDVGGYEFVSWYQHHPGKAPKLMIYDVSSRPSGVSNRFSGSKSGNTASLTISGLQAEDEADYYCSSYTRSSTVVFGGGARLTVL
notes: Same variable regions as Antibody 14
B12: Antibody 1 (antibody, V domains shown)
VH: QVQLVQSGAEVKKPGSSVKVSCKVSGGTFSSYSISWVRQAPGQGLEWMGGIIPIFGTTNYAQKFQGRVTITADESTSTAYMDLSSLKSEDTAMYYCEGGRVGADFDYWGQGTLVTVSS
VL: SSDLTQGPAVSVALGQTVRITCQGDSLRNYYASWYQQKPGQAPVPVIYGKNDRPSGIPDRFSGSISGNTASLTITGAQAEDEAHYYCNSRDSSGNHVVFGGGTKLTVL
notes: Same variable regions as Antibody 13

Molecular target: T1, human Protein S
Assay: BLI Octet; antibody on anti-human Fc probe; Protein S 7.81-500 nM; 4 mM CaCl2
Protocol: (§1) Binding characteristics of the Protein S antibodies were also further characterized using Octet. Using the Octet System (Sartorius), the binding of each antibody to both human and cynomolgus monkey (“cyno” in Table 10) Protein S was determined. The human Fc antibodies were immobilized onto anti-human Fc capture probes by placing the probes into 10 μg/ml antibody solution in 10 mg/ml bovine serum albumin, 20 mM Tris pH 7.0, 150 mM NaCl, and 4 mM calcium chloride. […] Next, the probes were placed into buffer and the dissociation rates were measured.

Kd	koff	kon	Binder
7.49 nM	0.00232 s⁻¹	309000 M⁻¹ s⁻¹	B1
1.99 nM	0.000636 s⁻¹	320000 M⁻¹ s⁻¹	B2
0.533 nM	0.000162 s⁻¹	304000 M⁻¹ s⁻¹	B3
8.18 nM	0.00141 s⁻¹	172000 M⁻¹ s⁻¹	B4
2.62 nM	0.000708 s⁻¹	271000 M⁻¹ s⁻¹	B5
0.574 nM	0.000159 s⁻¹	277000 M⁻¹ s⁻¹	B6
1.47 nM	0.000332 s⁻¹	226000 M⁻¹ s⁻¹	B7
6.78 nM	0.00106 s⁻¹	156000 M⁻¹ s⁻¹	B8
0.0542 nM	8.86e-06 s⁻¹	164000 M⁻¹ s⁻¹	B9
0.514 nM	6.7e-05 s⁻¹	131000 M⁻¹ s⁻¹	B10
< 0.001 nM	< 1e-07 s⁻¹	207000 M⁻¹ s⁻¹	B11
< 0.001 nM	< 1e-07 s⁻¹	169000 M⁻¹ s⁻¹	B12

Molecular target: T2, cynomolgus monkey Protein S (cynomolgus monkey)
T2 construct: also called cyno Protein S
Assay: as above
Protocol: as §1

Kd	koff	kon	Binder
11.3 nM	0.00291 s⁻¹	258000 M⁻¹ s⁻¹	B1
3.88 nM	0.00104 s⁻¹	268000 M⁻¹ s⁻¹	B2
0.266 nM	4.42e-05 s⁻¹	166000 M⁻¹ s⁻¹	B3
16.9 nM	0.00232 s⁻¹	137000 M⁻¹ s⁻¹	B4
15.3 nM	0.00308 s⁻¹	201000 M⁻¹ s⁻¹	B5
34.3 nM	0.00233 s⁻¹	67900 M⁻¹ s⁻¹	B6
2.81 nM	0.000394 s⁻¹	140000 M⁻¹ s⁻¹	B7
9.81 nM	0.00106 s⁻¹	109000 M⁻¹ s⁻¹	B8
< 0.001 nM	< 1e-07 s⁻¹	127000 M⁻¹ s⁻¹	B9
1.55 nM	0.000133 s⁻¹	85800 M⁻¹ s⁻¹	B10
< 0.001 nM	< 1e-07 s⁻¹	154000 M⁻¹ s⁻¹	B11
< 0.001 nM	< 1e-07 s⁻¹	139000 M⁻¹ s⁻¹	B12

Molecular target: T1, human Protein S
Assay: SPR Biacore X100; antibody captured by anti-human IgG (Fc); Protein S 2-128 nM; 5 mM CaCl2; 1:1 fit
Protocol: Binding characteristics of the Protein S antibodies were also determined. Binding interaction analysis was obtained by Surface Plasmon Resonance in a Biacore X100 instrument. The human anti-IgG (Fc) antibody was immobilized to the carboxymethylated dextran membrane on the sensor chip surface (CM5) via the free amine method for a contact time of 420 seconds. Human anti-IgG antibody at 25 μg/mL in 0.15 M NaCl was immobilized to 9,785 RU in 10 mM sodium acetate pH 5.0.
Dilution and running buffer were as follows: Hbs−EP+5 mM CaCl₂. Regeneration was obtained by 3 M MgCl₂. Binding constants (ka, kd, and KD) were determined using the Biacore X100 evaluation software, assuming a 1:1 interaction of Protein S and the tested monoclonal antibody under investigation.

Kd	koff	kon	Binder
14.4 nM	0.00947 s⁻¹	657000 M⁻¹ s⁻¹	B1
15.9 nM	0.00336 s⁻¹	212000 M⁻¹ s⁻¹	B3
20 nM	0.005 s⁻¹	252000 M⁻¹ s⁻¹	B4
4.13 nM	0.00165 s⁻¹	399000 M⁻¹ s⁻¹	B5
5.79 nM	0.0016 s⁻¹	280000 M⁻¹ s⁻¹	B7
2.24 nM	0.000569 s⁻¹	253000 M⁻¹ s⁻¹	B9
6.25 nM	0.000823 s⁻¹	132000 M⁻¹ s⁻¹	B10
1.63 nM	0.00056 s⁻¹	346000 M⁻¹ s⁻¹	B11
1.33 nM	0.00039 s⁻¹	290000 M⁻¹ s⁻¹	B12
